In patent US20190153055A1:

Target: receptor CCR1 (UniProt P32246)
Test: cell-based or functional assay

Sequence of UniProt P32246 (P32246 whole entry): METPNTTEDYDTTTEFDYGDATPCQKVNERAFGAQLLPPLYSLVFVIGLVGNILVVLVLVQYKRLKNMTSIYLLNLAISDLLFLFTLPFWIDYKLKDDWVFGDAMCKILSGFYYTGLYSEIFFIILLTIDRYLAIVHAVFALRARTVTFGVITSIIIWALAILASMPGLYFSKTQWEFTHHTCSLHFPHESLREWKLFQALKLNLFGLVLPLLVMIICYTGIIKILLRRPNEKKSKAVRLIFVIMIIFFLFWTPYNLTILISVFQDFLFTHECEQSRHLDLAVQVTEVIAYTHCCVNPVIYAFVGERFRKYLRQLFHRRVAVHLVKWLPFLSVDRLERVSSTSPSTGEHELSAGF

## CCL3 (D27A, Δ1, CCL3α) (from UniProt P10147 24-92) (ligand)
  reactivity of the CCR1 receptor (Tango CCR1-bla U20S reporter cells, Blue/Green Emission ratio): 0.63 nM
